In patent US20060115876A1:

Experiments:
[1] = target: von Willebrand factor (vWF) (UniProt P04275); test: vWF binding ELISA value divided by total antigen ELISA value
[2] = target: von Willebrand factor (vWF) (UniProt P04275); test: vWF binding ELISA (FVIII bound to vWf in severe hemophilic plasma, captured on anti-vWf mAb) divided by total antigen ELISA, relative to BDD
[3] = target: von Willebrand factor (vWF) (UniProt P04275); test: vWF binding ELISA, FVIII bound to vWf in severe hemophilic plasma
[4] = target: von Willebrand factor (vWF) (UniProt P04275); test: vWF binding ELISA divided by total antigen ELISA
[5] = target: von Willebrand factor (vWF) (UniProt P04275); test: vWF binding ELISA divided by total antigen ELISA, relative to starting KG-2
[6] = target: von Willebrand factor (vWF) (UniProt P04275); test: vWF binding ELISA divided by total antigen ELISA, relative to BDD

Sequence of B domain deleted FVIII (BDD) (P00451 other isoform, or with tags, fused parts or gaps limits assumed): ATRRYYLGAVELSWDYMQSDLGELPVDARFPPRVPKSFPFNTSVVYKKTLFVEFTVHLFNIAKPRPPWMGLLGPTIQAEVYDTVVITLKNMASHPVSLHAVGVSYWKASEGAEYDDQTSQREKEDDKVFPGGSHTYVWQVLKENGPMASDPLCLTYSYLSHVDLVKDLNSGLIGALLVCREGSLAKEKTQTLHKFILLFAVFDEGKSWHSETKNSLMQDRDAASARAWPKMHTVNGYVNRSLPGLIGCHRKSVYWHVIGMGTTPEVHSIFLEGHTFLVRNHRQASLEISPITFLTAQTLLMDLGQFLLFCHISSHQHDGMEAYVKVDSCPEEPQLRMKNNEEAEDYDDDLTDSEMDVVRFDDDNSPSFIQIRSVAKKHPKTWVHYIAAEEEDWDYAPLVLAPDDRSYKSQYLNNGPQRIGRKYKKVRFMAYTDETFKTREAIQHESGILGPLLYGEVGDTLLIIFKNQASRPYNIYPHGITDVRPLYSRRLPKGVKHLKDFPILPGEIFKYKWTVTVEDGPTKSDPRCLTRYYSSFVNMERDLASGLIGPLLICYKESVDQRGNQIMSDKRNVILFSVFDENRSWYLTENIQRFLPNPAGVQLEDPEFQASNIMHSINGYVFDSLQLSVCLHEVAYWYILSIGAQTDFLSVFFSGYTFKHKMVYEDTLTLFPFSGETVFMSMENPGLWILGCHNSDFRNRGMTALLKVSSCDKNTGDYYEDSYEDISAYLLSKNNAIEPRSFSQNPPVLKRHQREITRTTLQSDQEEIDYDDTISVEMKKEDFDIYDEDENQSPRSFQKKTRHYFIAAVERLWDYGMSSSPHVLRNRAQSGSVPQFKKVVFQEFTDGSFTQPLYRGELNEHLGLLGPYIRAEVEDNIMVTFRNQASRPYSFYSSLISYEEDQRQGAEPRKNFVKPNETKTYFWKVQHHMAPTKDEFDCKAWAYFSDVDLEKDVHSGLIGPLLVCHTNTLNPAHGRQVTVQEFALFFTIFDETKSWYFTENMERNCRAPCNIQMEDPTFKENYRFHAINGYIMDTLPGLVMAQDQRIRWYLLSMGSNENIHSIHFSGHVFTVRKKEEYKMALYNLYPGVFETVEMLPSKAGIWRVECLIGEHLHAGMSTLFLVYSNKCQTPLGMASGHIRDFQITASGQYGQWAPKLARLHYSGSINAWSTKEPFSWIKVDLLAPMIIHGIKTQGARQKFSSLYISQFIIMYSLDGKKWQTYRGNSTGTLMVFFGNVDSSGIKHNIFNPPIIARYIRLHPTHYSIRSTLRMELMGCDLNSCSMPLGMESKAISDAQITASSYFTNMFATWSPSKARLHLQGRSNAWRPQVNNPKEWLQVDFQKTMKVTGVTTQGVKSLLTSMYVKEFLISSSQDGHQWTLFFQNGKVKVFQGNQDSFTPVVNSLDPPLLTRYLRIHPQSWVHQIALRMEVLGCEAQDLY
Sequence of PEG2 red (PEG2 mutein treated with reductant followed by removal of reductant) (P00451 other isoform, or with tags, fused parts or gaps mutant): as the sequence (P00451 other isoform, or with tags, fused parts or gaps limits assumed) above, with L491C counted along it

B domain deleted FVIII (BDD) (from UniProt P00451 20-2351)
vWF/TAE (specific vWF binding activity) [1]: 1 vWF/TAE
percent specific activity vWF/TAE relative to BDD [2]: 100%

KG-2-22 kD PEG (wildtype full length FVIII PEGylated with 22 kD PEG) (from UniProt P00451 20-2351)
vWF ELISA (FVIII bound to vWf) [3]: 0.19 µg/mL
vWF/TAE (ratio (vWF ELISA ug/mL / TAE ug/mL)) [4]: 0.3
% Start (vWF/TAE) [5]: 94%

KG-2-30 kD PEG (wildtype full length FVIII PEGylated with 30 kD PEG) (from UniProt P00451 20-2351)
vWF ELISA (FVIII bound to vWf) [3]: 0.19 µg/mL
vWF/TAE (ratio (vWF ELISA ug/mL / TAE ug/mL)) [4]: 0.32
% Start (vWF/TAE) [5]: 100%

PEG2 mutein (L491C BDD FVIII) (from UniProt P00451 20-2351)
percent specific activity vWF/TAE relative to BDD [6]: 138%

PEG2 red (PEG2 mutein treated with reductant followed by removal of reductant) (from UniProt P00451 20-2351)
percent specific activity vWF/TAE relative to BDD [6]: 98%

PEG2-5 kD PEG (L491C BDD FVIII PEGylated with 5 kD PEG-maleimide) (from UniProt P00451 20-2351)
percent specific activity vWF/TAE relative to BDD [6]: 125%

PEG2-12 kD PEG (L491C BDD FVIII PEGylated with 12 kD PEG-maleimide) (from UniProt P00451 20-2351)
percent specific activity vWF/TAE relative to BDD [6]: 71%

PEG2-22 kD PEG (L491C BDD FVIII PEGylated with 22 kD PEG-maleimide) (from UniProt P00451 20-2351)
percent specific activity vWF/TAE relative to BDD [6]: 87%

PEG2-33 kD PEG (L491C BDD FVIII PEGylated with 33 kD PEG-maleimide) (from UniProt P00451 20-2351)
percent specific activity vWF/TAE relative to BDD [6]: 59%

PEG2-43 kD PEG (L491C BDD FVIII PEGylated with 43 kD PEG-maleimide) (from UniProt P00451 20-2351)
percent specific activity vWF/TAE relative to BDD [6]: 57%

PEG6 mutein (K1808C BDD FVIII) (from UniProt P00451 20-2351)
percent specific activity vWF/TAE relative to BDD [6]: 100%

PEG6-33 kD PEG (K1808C BDD FVIII PEGylated with 33 kD PEG-maleimide) (from UniProt P00451 20-2351)
percent specific activity vWF/TAE relative to BDD [6]: 90%

wildtype full length FVIII (KG-2) (from UniProt P00451 20-2351)
vWF ELISA (FVIII bound to vWf) [3]: 0.42 µg/mL
vWF/TAE (ratio (vWF ELISA ug/mL / TAE ug/mL)) [4]: 0.32
% Start (vWF/TAE) [5]: 100%
